These results are taken from US20230406935A1 (F STAR THERAPEUTICS, published 2023).

Assay [1] concerns the target T1, Human CD80 expressed on HEK 293 cells (human, UniProt P33681 35-288).
T1 construct: also called hCD80
T1 sequence: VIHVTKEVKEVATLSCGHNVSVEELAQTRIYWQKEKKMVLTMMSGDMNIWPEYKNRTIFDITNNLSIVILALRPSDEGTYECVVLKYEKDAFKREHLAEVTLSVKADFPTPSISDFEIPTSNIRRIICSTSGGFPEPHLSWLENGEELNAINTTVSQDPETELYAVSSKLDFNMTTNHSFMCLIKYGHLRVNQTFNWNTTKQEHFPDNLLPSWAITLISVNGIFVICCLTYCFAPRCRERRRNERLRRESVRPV
Briefly: flow cytometry on HEK 293 cells. For orientation: Flow cytometry measures light scatter and fluorescence of single cells or particles in a stream.

Assay [2] concerns the target T2, Mouse CD80 expressed on HEK 293 cells (mouse, UniProt Q00609 38-306).
T2 sequence: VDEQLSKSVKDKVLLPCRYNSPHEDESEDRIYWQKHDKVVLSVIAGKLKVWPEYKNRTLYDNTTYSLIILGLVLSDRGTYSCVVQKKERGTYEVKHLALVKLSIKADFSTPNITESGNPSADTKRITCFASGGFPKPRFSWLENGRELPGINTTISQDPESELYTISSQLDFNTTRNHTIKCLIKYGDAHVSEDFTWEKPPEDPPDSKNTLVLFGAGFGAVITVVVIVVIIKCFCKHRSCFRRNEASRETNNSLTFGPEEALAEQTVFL
The assay can be described thus: flow cytometry on HEK 293 cells.

The target in assay [3] is T3, Human PD-1 expressed on HEK 293 cells (human, UniProt Q15116 25-288).
T3 construct: also called hPD-1
T3 sequence (Q15116 25-288 limits assumed): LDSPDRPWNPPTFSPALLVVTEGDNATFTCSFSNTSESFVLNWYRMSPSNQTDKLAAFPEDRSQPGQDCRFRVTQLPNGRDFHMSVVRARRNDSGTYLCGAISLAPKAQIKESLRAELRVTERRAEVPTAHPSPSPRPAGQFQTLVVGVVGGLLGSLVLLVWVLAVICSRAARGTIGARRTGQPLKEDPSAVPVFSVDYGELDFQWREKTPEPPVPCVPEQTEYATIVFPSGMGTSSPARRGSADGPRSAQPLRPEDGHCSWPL
The assay can be described thus: flow cytometry on HEK 293 cells.

Assay [4] addresses Mouse PD-L1 expressed on HEK 293 cells (mouse, UniProt Q9EP73 19-290). The assay can be described thus: flow cytometry on HEK 293 cells.
The target of assay [5] is T4, Recombinant mouse PD-L1 with a C-terminal human IgG tag (R&D Systems, 1019-B7), biotinylated (mouse, UniProt Q9EP73 19-238).
T4 construct: also called mouse PD-L1 Fc
T4 sequence (Q9EP73 19-238 limits assumed): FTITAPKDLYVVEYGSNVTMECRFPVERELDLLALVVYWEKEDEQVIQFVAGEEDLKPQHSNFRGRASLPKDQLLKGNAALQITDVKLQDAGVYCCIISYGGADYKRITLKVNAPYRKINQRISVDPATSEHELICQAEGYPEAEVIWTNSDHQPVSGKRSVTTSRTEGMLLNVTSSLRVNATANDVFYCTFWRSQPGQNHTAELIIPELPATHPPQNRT
Briefly: SPR BIAcore 3000, mouse PD-L1 Fc on streptavidin chip. On the technique in general: SPR reads the build-up and loss of mass on a sensor chip optically.

Sequence of Mouse PD-L1 expressed on HEK 293 cells (Q9EP73 19-290 limits assumed): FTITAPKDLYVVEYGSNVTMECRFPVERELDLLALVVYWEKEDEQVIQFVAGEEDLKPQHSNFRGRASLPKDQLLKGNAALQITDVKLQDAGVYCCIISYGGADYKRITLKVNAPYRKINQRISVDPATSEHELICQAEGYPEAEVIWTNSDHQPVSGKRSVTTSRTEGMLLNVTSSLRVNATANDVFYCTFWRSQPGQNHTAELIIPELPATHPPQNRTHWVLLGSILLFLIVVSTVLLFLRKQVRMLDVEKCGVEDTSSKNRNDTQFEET

B1: Fcab FS17-33 (Example 1, soluble Fcab with truncated hinge) (designed binder)
chain: TCPPCPAPELLGGPSVFLFPPKPKDTLMISRTPEVTCVVVDVSHEDPEVKFNWYVDGVEVHNAKTKPREEQYNSTYRVVSVLTVLHQDWLNGKEYKCKVSNKALPAPIEKTISKAKGQPREPQVYTLPPSRDEQSGYWVSLTCLVKGFYPSDIAVEWESNGQPENNYKTTPPVLDSDGSFFLYSKLTVSNWRWQMGDFSCSVMHEALHNHYTQKSLSLSPGK
In the case of B1, the binding result in assay [1] is recorded as “no binding (tested: 1 µM)”; in assay [2], “no binding (tested: 1 µM)”; in assay [3], “no binding (tested: 1 µM)”; in assay [4] it was “no binding (tested: 1 µM)”; in assay [5] it was “no binding”.
